Values of other authors in article PMC8865373.
Like-named read-outs stand apart in the source and are kept apart here.

Key:
CBP TAZ2 TAZ2 [1] = molecular target: CBP TAZ2 TAZ2 (UniProt P45481)
CBP TAZ2 TAZ2 [2] = molecular target: CBP TAZ2 TAZ2 (UniProt P45481); remark: listed apart in the source

CBP TAZ2 TAZ2, sequence (P45481 1764-1855): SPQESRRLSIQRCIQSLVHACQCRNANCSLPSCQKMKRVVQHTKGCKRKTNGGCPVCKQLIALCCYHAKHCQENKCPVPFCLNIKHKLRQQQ
HPV E7, sequence (P03129 whole entry): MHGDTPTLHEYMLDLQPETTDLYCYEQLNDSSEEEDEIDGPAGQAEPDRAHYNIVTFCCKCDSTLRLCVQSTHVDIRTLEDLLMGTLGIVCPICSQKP
p53 AD1 AD1, sequence (P04637 13-37): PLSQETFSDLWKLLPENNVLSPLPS

**Q.** With p53 AD1 AD1 (from UniProt P04637) as the substance, how does the Kd (CBP TAZ2 TAZ2 [1]) read?
**A.** Its Kd is 24 µM.

**Q.** Which Kd (CBP TAZ2 TAZ2 [2]) does the source give for HPV E7 (from UniProt P03129) here?
**A.** The Kd was 0.022 µM.
